T1: MERS-CoV spike antigens (bead panel) (MERS-CoV, UniProt K9N5Q8 18-1296)
T1 sequence: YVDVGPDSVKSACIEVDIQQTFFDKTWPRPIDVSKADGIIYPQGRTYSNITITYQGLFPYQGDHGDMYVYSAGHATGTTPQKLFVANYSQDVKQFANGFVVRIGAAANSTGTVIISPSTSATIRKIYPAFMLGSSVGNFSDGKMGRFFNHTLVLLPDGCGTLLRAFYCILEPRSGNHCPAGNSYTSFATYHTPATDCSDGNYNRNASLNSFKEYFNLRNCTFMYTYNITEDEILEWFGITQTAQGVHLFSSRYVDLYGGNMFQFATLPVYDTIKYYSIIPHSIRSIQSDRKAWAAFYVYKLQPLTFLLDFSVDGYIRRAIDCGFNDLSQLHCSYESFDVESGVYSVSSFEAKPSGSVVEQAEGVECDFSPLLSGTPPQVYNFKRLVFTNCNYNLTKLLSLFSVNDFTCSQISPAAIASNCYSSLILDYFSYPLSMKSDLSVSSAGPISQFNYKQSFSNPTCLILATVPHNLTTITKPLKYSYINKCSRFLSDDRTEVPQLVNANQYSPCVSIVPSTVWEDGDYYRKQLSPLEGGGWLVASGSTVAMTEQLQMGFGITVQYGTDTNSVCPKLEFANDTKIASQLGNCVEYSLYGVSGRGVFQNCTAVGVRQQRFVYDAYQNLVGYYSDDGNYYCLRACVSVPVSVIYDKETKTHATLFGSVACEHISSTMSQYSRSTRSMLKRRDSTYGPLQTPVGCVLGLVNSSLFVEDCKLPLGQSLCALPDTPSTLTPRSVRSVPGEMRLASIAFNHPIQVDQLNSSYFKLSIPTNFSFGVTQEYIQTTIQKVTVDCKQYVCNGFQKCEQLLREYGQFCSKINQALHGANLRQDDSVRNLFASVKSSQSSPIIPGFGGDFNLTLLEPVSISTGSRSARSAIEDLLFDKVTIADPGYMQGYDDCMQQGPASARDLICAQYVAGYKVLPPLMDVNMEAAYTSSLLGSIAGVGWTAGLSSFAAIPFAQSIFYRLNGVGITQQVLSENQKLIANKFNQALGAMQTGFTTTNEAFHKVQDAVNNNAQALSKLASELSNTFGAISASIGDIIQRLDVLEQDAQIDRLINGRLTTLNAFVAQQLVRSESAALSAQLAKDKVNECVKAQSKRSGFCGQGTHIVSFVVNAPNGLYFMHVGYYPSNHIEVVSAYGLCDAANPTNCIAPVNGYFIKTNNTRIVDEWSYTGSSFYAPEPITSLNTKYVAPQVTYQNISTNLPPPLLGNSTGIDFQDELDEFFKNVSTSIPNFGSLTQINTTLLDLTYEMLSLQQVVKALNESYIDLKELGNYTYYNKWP


What was measured:
[1] = target: SARS-CoV-2 S on pseudovirions (Wuhan Hu-1 / IL1/2020, last 18 amino acids removed) (SARS-CoV-2, UniProt P0DTC2 14-1273); assay: cell-based or functional assay
[2] = target: T1, MERS-CoV spike antigens (bead panel); assay: multiplex bead assay

Row | Binder | Mean IC50, pSV neutralization [1] [µg/ml] | Mean IC80, pSV neutralization [1] [µg/ml] | binding result [2]
1 | COV_2172 (SEQ ID NO:872/877) (antibody, V domains shown) VH: EVQLVESGGGVVQPGRSLRLSCAPSGFTFSTYAMHWVRQAPGKGLEWVAVISYDGSIKYYADSVKGRFTISRDNTMNTVFLQMNSLRAEDTAVYFCAKGGERWELFTSFDYWGQGTQVTVSS VL: QSALTQPRSVSGSPGQSVTISCTGTSSDVGGYNYVSWYQQHPGKAPKLMIYDVSKRPSGVPDRFSGSKSGNTASLTISGLQAEDEADYYCCSYAGSYTFVFGGGTKLTVLG | 3.99 | ≥ 25 | no binding
2 | COV_2077 (antibody, V domains shown, human IgG1) VH: QVQLQESGPGLVKPSETLSLTCTVSGGSISSYSWSWIRQPPGKGLEWIGYIYYSGSTNYNPSLKSRVTISVDTSKNQFSLKLSSVTAADTAVYYCARESMGRYSLELRQPESAFDYWGRGTLVTVSS VL: not shown | ≥ 25 | ≥ 25 | no binding
3 | COV_1201 (antibody, V domains shown, human IgG1) VH: QVQLVQSGAEVKKPGASMKVSCKASGYTFTGYYIHWVRQAPGQGLEWMGRINPNSGGTNYAQKFQGRVTMTRDTSISTAYMELSRLRSDDTAVYYCAREYYYVPYGMDVWGQGTTVTVSS VL: QSALTQPASVSGSPGQSITISCTGTSSDVGGYNFVSWYQHHPGKAPKLMIYEVSNRPSGVSNRFSGSKSGNTASLTISGLQAEDEADYYCSSYTSSSTYVFGTGTKVTVL | 0.09 | 0.3 | no binding
4 | COV_2048 (antibody, V domains shown, human IgG1) VH: QVQLQESGPGLVKPSETLSLTCTVSGGSISNTSYYWGWIRQPPGKGLEWIGSIYRSGSTYYNPSLKSRVTISIDTSKNQFTLKLSSVTAADTAVYYCARDYYGDYSAKPMEYWGQGTLVTVSS VL: QSALTQPRSVSGSPGQSVTISCTGTSSDVGGYNYVSWYQQHPGKAPKLLIYDVSKRPSGVPDRFSGSKSGNTASLTISGLQAEDEADYYCCSYAGSYVVFGGGAKLTVLG | 20.3 | ≥ 25 | no binding
5 | COV_1166 (antibody, V domains shown, human IgG1) VH: EVQLVESGGGLVQPGGSLRLSCAVSGFTFRSFWMSWVRQTPGKGLEWVANIKEDGSEKYYVDSVKGRFTISRDNAKNSLYLQMNSLRAEDTAVYYCAREGRWELLGFAFDIWGQGTMVTVSS VL: not shown | ≥ 25 | ≥ 25 | no binding
6 | COV_2056 (SEQ ID NO:792/797) (antibody, V domains shown) VH: EVQLVESGGGVVQPGRSLRLSCAASGFTFSIYGMHWVRQAPGKGLEWVALISYDGTNKYYADSVKGRFSISRDDSKNTLYLQMNSLRPEDTAVYYCAKVLMMGDSSGFSLGDAFDIWGQGTMVTVSS VL: DIQMTQSPSSVSASVGDRVTITCRASQGISNWLAWYQQKPGKAPKLLIYAASSLQSGVPSRFSGSVSGTDFTLTISSLQPEDFATYYCQQANSFPLTFGGGTKVDIKR | 7.46 | ≥ 25 | no binding
7 | COV_1170 (antibody, V domains shown, human IgG1) VH: QVQLVESGGGVVQPGRSLRLSCAASGFTFSTYAMHWVRQAPGKGLEWVALISYDGSNKYYADSVKGRFTISRDNSKNTLDLQMNSLRAEDTAVYYCARSLGGYRTGFDYWGQGTLVTVSS VL: DIQLTQSPSFLSASVGDRVTITCRASQGISSYLAWYQQKPGKAPKLLIYAASTLQSGVPSRFSGSGSGTEFTLTISSLQPEDFATYYCQQLNSYPPFTFGPGTKVDIKR | 0.2 | ≥ 25 | no binding
8 | COV_1151 (antibody, V domains shown, human IgG1) VH: QVQVQQWGAGLLKPSETLSLTCAVYGGSFNNYYWSWIRQPPGKGLEWIGEINHSGSTNYNPSLMSRVTISVDTSKNQFSLKLTSVTAADTAVYFCARGLPVTTFFSSYYGMDVWGQGTTVTVSS VL: EIVLTQSPGTLSLSPGERATLSCRASQSVSRTYLAWYQQKPGQAPRLLIYGASSRATGIPDRFSGSGSGTDFTLTISRLEPEDFAVYYCQHYGSSPWTFGQGTKVEIRR | ≥ 25 | ≥ 25 | no binding
9 | COV_2093 (antibody, V domains shown, human IgG1) VH: EVQLVESGGGLVQPGGSLRLSCAASGFMFNRFWMSWVRQAPGKGLEWVTNIKQDGSEKNYVDSVKGRFTISRDNAKNSLYLQMNSLRAEDTAVYYCARDGLYYDFRSPSPFYGMDVWGQGTTVTVSS VL: DIQMTQSPSSLSASVGDRVTITCRASQSISSYLNWYQHKSGKAPKLLIYAASRLQSGVPSRFSGSGSGTDFTLTIVSLQPEDLATYYCQQSYSTPRTFGGGTKVEIKR | ≥ 25 | ≥ 25 | no binding
10 | COV_3129 (antibody, V domains shown, human IgG1) VH: QVQLQQWGAGLLKPSDTLSLTCAANGGGSFSGYYLGYIRQSPGKGLEWIGEINHNGGTNYNPSLKSRVTISGDTSKNQFSLKLSSVTAADTAIYYCARSRDSSLGDAVWYEYWGQGTLITVSS VL: EIVLTQSPATLSLSPGERATLSCRASQSVDIYLAWYQQRPGQAPRLLISDASKRATGVPARFSGSGSGTDFTLTINSLEPEDFAIYYCQQRRDWPINFGQGTRLEIKR | – | – | no binding
11 | COV_1144 (antibody, V domains shown, human IgG1) VH: EVQLVESGGGLVQPGGSLRLSCAASGFTFRSFWMSWVRQAPGKGLEWVANIKEDASEKHYVDPVKGRFTISRDNAKNSLYLQLNSLRAEDMAVYYCARVGRGYCTNGLCYTAFEYWGQGTLVTVSS VL: DIQMTQSPSSLSASVGDRVTITCRTSQSISNYLNWYQQKPGKAPKLLIYAASSLQSGVPSRFSGSGSGTDFTLTISSLQPEDFATYYCQQSYSTAWTFGQGTKVEIRR | ≥ 25 | ≥ 25 | no binding
12 | COV_1172 (antibody, V domains shown, human IgG1) VH: QVQLQESGPGLVKPSETLSLTCTVSGGSIRSYYWSWIRQPPGKGLEWIGYIYYSGSTNYSPSLKSRVTISVDTSKNQFSLKLNSVTAADTAVYYCARRGLGYCSGDSCSNAFDIWGQGTMVTVSS VL: DIQMTQSPSSLSASVGDRVTITCRASQSISSYLNWYQQKPGRAPELLIYDASSLQSGVPSGFSGSGSGTDFTLTISSLQPEDFATYYCQQSYSTPFTFGPGTKVDIKR | ≥ 25 | ≥ 25 | no binding
13 | COV_2143 (antibody, V domains shown, human IgG1) VH: EVQLVESGGGVVQPGRSLRLSCAASGFTFNSFAMLWVRQAPGKGLEWVALFSYDGSNKYYADSVKGRFTISRDNSKNTLYLQMNNLRAVDTAVYYCARASPYDINGYYLHRIAFDIWGQGTMVTVSS VL: QSVLMQPPSVSGAPGQRVTISCTGSSSNIGAGYDVHWYQQLPGTAPKLLMYGNSNRPSGVPDRFSGSKSGTSASLAITGLQAEDEADYYCQSYDSGLSGWVFGGGTKLTVLG | ≥ 25 | ≥ 25 | no binding
14 | COV_1149 (antibody, V domains shown, human IgG1) VH: QVQLVESGGGVVQPGRSLRLSCAASGFTFSSYGMHWVRQAPGKGLEWVAVISYDGSNKYYADSVKGRFTISRDNSKNTLYLQMNSLRAEDTAVYYCAKTGGGYSYGLGNVWGQGTLVTVSS VL: QSALTQPASVSGSPGQSITISCTGTSSDVGGYNYVSWYQQHPGKAPKLMIYDVSNRPSGVSNRFSGSKSGNTASLTISGLQAEDEADYYCSSYTSSSTLVVFGGGTKLTVLG | ≥ 25 | ≥ 25 | no binding
